Source: patent US20250188151A1, “C-JUN ANTAGONIST PEPTIDES” (The University of Bath, priority 2022, published 2025)
Bridge positions count the residues as written; N and C are the ends. Peptide text beside a SMILES is read from it.

B1: HingeW peptide variant 24 (HW30) (peptide)
peptide: Ac-EAEELVVEEKVLEDEIEQLEERNYALRKEIKDLQDQ-NH2
modifications: lactam 10-14, 31-35
SMILES: CC[C@H](C)[C@H](NC(=O)[C@H](CCC(=O)O)NC(=O)[C@H](CCCCN)NC(=O)[C@H](CCCNC(=N)N)NC(=O)[C@H](CC(C)C)NC(=O)[C@H](C)NC(=O)[C@H](Cc1ccc(O)cc1)NC(=O)[C@H](CC(N)=O)NC(=O)[C@H](CCCNC(=N)N)NC(=O)[C@H](CCC(=O)O)NC(=O)[C@H](CCC(=O)O)NC(=O)[C@H](CC(C)C)NC(=O)[C@H](CCC(N)=O)NC(=O)[C@H](CCC(=O)O)NC(=O)[C@@H](NC(=O)[C@H](CCC(=O)O)NC(=O)[C@@H]1CC(=O)NCCCC[C@H](NC(=O)[C@H](CCC(=O)O)NC(=O)[C@H](CCC(=O)O)NC(=O)[C@@H](NC(=O)[C@@H](NC(=O)[C@H](CC(C)C)NC(=O)[C@H](CCC(=O)O)NC(=O)[C@H](CCC(=O)O)NC(=O)[C@H](C)NC(=O)[C@H](CCC(=O)O)NC(C)=O)C(C)C)C(C)C)C(=O)N[C@@H](C(C)C)C(=O)N[C@@H](CC(C)C)C(=O)N[C@@H](CCC(=O)O)C(=O)N1)[C@@H](C)CC)C(=O)N[C@H]1CCCCNC(=O)C[C@@H](C(=O)N[C@@H](CCC(N)=O)C(N)=O)NC(=O)[C@H](CCC(N)=O)NC(=O)[C@H](CC(C)C)NC(=O)[C@H](CC(=O)O)NC1=O
notes: Synthetic, NΔ20 CΔ7; also called double lactamised peptide
B2: HingeW peptide variant 22 (peptide)
peptide: Ac-EAEELVVEEDVLEEEIEQLEERNYALRKEIKDLQDQ-NH2
notes: Synthetic, NΔ20 CΔ7; also called linear form of 22/23
B3: HingeW variant peptide 14 (peptide)
peptide: Ac-EAKELVDEEDVLEEEIEQLEERNYALRKEIEDLQKQ-NH2
notes: Synthetic, NΔ20 CΔ7; also called linear form of 14/15
B4: HingeW variant peptide 16 (peptide)
peptide: Ac-EAEELVVEEKVLEDEIEQLEERNYALRKEIEDLQKQ-NH2
notes: Synthetic, NΔ20 CΔ7; also called linear form of 16/17
B5: HingeW variant peptide 19 (peptide)
peptide: Ac-EAEELVVEEDVLEEEIKQLEDRNYALRKEIEDLQKQ-NH2
modifications: lactam 17-21
SMILES: CC[C@H](C)[C@H](NC(=O)[C@H](CCC(=O)O)NC(=O)[C@H](CCCCN)NC(=O)[C@H](CCCNC(=N)N)NC(=O)[C@H](CC(C)C)NC(=O)[C@H](C)NC(=O)[C@H](Cc1ccc(O)cc1)NC(=O)[C@H](CC(N)=O)NC(=O)[C@H](CCCNC(=N)N)NC(=O)[C@@H]1CC(=O)NCCCC[C@H](NC(=O)[C@@H](NC(=O)[C@H](CCC(=O)O)NC(=O)[C@H](CCC(=O)O)NC(=O)[C@H](CCC(=O)O)NC(=O)[C@H](CC(C)C)NC(=O)[C@@H](NC(=O)[C@H](CC(=O)O)NC(=O)[C@H](CCC(=O)O)NC(=O)[C@H](CCC(=O)O)NC(=O)[C@@H](NC(=O)[C@@H](NC(=O)[C@H](CC(C)C)NC(=O)[C@H](CCC(=O)O)NC(=O)[C@H](CCC(=O)O)NC(=O)[C@H](C)NC(=O)[C@H](CCC(=O)O)NC(C)=O)C(C)C)C(C)C)C(C)C)[C@@H](C)CC)C(=O)N[C@@H](CCC(N)=O)C(=O)N[C@@H](CC(C)C)C(=O)N[C@@H](CCC(=O)O)C(=O)N1)C(=O)N[C@@H](CCC(=O)O)C(=O)N[C@@H](CC(=O)O)C(=O)N[C@@H](CC(C)C)C(=O)N[C@@H](CCC(N)=O)C(=O)N[C@@H](CCCCN)C(=O)N[C@@H](CCC(N)=O)C(N)=O
notes: Synthetic, NΔ20 CΔ7; also called cyclised form of 18/19
B6: HingeW variant peptide 18 (peptide)
peptide: Ac-EAEELVVEEDVLEEEIKQLEDRNYALRKEIEDLQKQ-NH2
notes: Synthetic, NΔ20 CΔ7; also called linear form of 18/19
B7: HingeW variant peptide 12 (peptide)
peptide: Ac-KEAEDLVVEEDVLEEEIEQLEERNYALRKEIKDLQDQ-NH2
notes: Synthetic, NΔ19 CΔ7; also called linear form of 12/13
B8: HingeW variant peptide 28 (peptide)
peptide: Ac-EAEELVVEEDVLEEEIEQLEERNYALRKEIEDLQ-NH2
notes: Synthetic, NΔ20 CΔ9; also called linear form of 28/29
B9: HingeW variant peptide 9 (peptide)
peptide: Ac-LVVEEDVLEEEIEQLEERNYALRKEIEDLQKQLEDL-NH2
notes: Synthetic, NΔ24 CΔ3; also called linear form of 9/10
B10: HingeW variant peptide 21 (peptide)
peptide: Ac-EAEELVVEEDVLEEEIEQLEEKNKALKDEIEDLQKQY-NH2
modifications: lactam 24-28 (inferred)
notes: Synthetic, NΔ20 CΔ7; also called cyclised form of 20/21
B11: HingeW variant peptide 20 (peptide)
peptide: Ac-EAEELVVEEDVLEEEIEQLEEKNKALKDEIEDLQKQY-NH2
notes: Synthetic, NΔ20 CΔ7; also called linear form of 20/21

Molecular target: T1, cJun bZIP (human, UniProt P05412 252-308, limits assumed)
T1 construct: Purified from a His-SUMO fusion with the tag cleaved off; also called c-Jun bZIP domain; 60 amino acid c-Jun bZIP construct
T1 chain: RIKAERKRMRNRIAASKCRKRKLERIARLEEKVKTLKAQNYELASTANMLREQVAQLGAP
Test: ITC (PEAQ-ITC), peptide injected into cJun, one site model
Conditions: not given

Molecule | -TΔS | Kd | Stoichiometry, n | ΔG | ΔH
B1 | 19.6 kcal/mol | 0.00969 µM | 1.05 | -10.9 kcal/mol | -30.5 kcal/mol
Ac-EAEELVVEEDVLEEEIEQLEERNYALRKEIEDLQKQLEKL-NH2 (Synthetic, NΔ20 CΔ3) [HingeW variant peptide 4] | 35.7 kcal/mol | 0.0911 µM | 0.91 | -9.68 kcal/mol | -45.4 kcal/mol

molecular target: cJun bZIP (Homo sapiens, UniProt P05412, S292Y); test: CD spectra and thermal denaturation of peptide/cJun heterodimers; conditions: peptide (5 μM)/c-Jun (5 μM) heterodimer; Table 6

Molecule | Tm (° C.)
Ac-EAEELVVEEKVLEDEIEQLEERNYALRKEIEDLQKQ-NH2 [Peptide 16] | 54.9 ± 1.2 °C
Ac-EAEELVVEEDVLEEEIEQLEERNYALRKEIEDLQ-NH2 [Peptide 28] | 53.8 ± 5.3 °C
CC[C@H](C)[C@H](NC(=O)[C@H](CCC(=O)O)NC(=O)[C@H](CCCCN)NC(=O)[C@H](CCCNC(=N)N)NC(=O)[C@H](CC(C)C)NC(=O)[C@H](C)NC(=O)[C@H](Cc1ccc(O)cc1)NC(=O)[C@H](CC(N)=O)NC(=O)[C@H](CCCNC(=N)N)NC(=O)[C@@H]1CC(=O)NCCCC[C@H](NC(=O)[C@@H](NC(=O)[C@H](CCC(=O)O)NC(=O)[C@H](CCC(=O)O)NC(=O)[C@H](CCC(=O)O)NC(=O)[C@H](CC(C)C)NC(=O)[C@@H](NC(=O)[C@H](CC(=O)O)NC(=O)[C@H](CCC(=O)O)NC(=O)[C@H](CCC(=O)O)NC(=O)[C@@H](NC(=O)[C@@H](NC(=O)[C@H](CC(C)C)NC(=O)[C@H](CCC(=O)O)NC(=O)[C@H](CCC(=O)O)NC(=O)[C@H](C)NC(=O)[C@H](CCC(=O)O)NC(C)=O)C(C)C)C(C)C)C(C)C)[C@@H](C)CC)C(=O)N[C@@H](CCC(N)=O)C(=O)N[C@@H](CC(C)C)C(=O)N[C@@H](CCC(=O)O)C(=O)N1)C(=O)N[C@@H](CCC(=O)O)C(=O)N[C@@H](CC(=O)O)C(=O)N[C@@H](CC(C)C)C(=O)N[C@@H](CCC(N)=O)C(=O)N[C@@H](CCCCN)C(=O)N[C@@H](CCC(N)=O)C(N)=O [Peptide 19] (Ac-EAEELVVEEDVLEEEIKQLEDRNYALRKEIEDLQKQ-NH2; lactam 17-21 (inferred)) | 60.9 ± 3.6 °C
Ac-EAEELVVEEDVLEEEIEQLEEKNKALKDEIEDLQKQY-NH2 [Peptide 20] | 56.2 ± 1.3 °C
Ac-EDVLEEEIEQLEERNYALRKEIEDLQKQLEKLY-NH2 [Peptide 7] | 64.3 ± 1.3 °C
Ac-EAKELVDEEDVLEEEIEQLEERNYALRKEIEDLQKQ-NH2 [Peptide 14] | 57.5 ± 1.1 °C
Ac-KEAEDLVVEEDVLEEEIEQLEERNYALRKEIKDLQDQ-NH2 [Peptide 12] | 56.5 ± 1.6 °C
CC[C@H](C)[C@H](NC(=O)[C@H](CCC(=O)O)NC(=O)[C@@H]1CC(=O)NCCCC[C@H](NC(=O)[C@H](CC(N)=O)NC(=O)[C@H](CCCCN)NC(=O)[C@H](CCC(=O)O)NC(=O)[C@H](CCC(=O)O)NC(=O)[C@H](CC(C)C)NC(=O)[C@H](CCC(N)=O)NC(=O)[C@H](CCC(=O)O)NC(=O)[C@@H](NC(=O)[C@H](CCC(=O)O)NC(=O)[C@H](CCC(=O)O)NC(=O)[C@H](CCC(=O)O)NC(=O)[C@H](CC(C)C)NC(=O)[C@@H](NC(=O)[C@H](CC(=O)O)NC(=O)[C@H](CCC(=O)O)NC(=O)[C@H](CCC(=O)O)NC(=O)[C@@H](NC(=O)[C@@H](NC(=O)[C@H](CC(C)C)NC(=O)[C@H](CCC(=O)O)NC(=O)[C@H](CCC(=O)O)NC(=O)[C@H](C)NC(=O)[C@H](CCC(=O)O)NC(C)=O)C(C)C)C(C)C)C(C)C)[C@@H](C)CC)C(=O)N[C@@H](C)C(=O)N[C@@H](CC(C)C)C(=O)N[C@@H](CCCCN)C(=O)N1)C(=O)N[C@@H](CCC(=O)O)C(=O)N[C@@H](CC(=O)O)C(=O)N[C@@H](CC(C)C)C(=O)N[C@@H](CCC(N)=O)C(=O)N[C@@H](CCCCN)C(=O)N[C@@H](CCC(N)=O)C(=O)N[C@@H](Cc1ccc(O)cc1)C(N)=O [Peptide 21] (Ac-EAEELVVEEDVLEEEIEQLEEKNKALKDEIEDLQKQY-NH2; lactam 24-28) | 58.9 ± 1.0 °C
Ac-LVVEEDVLEEEIEQLEERNYALRKEIEDLQKQLEDL-NH2 [Peptide 9] | 62.1 ± 1.4 °C
Ac-EAEELVVEEDVLEEEIEQLEERNYALRKEIKDLQDQ-NH2 [Peptide 22] | 55.6 ± 1.2 °C
Ac-EAEELVVEEDVLEEEIKQLEDRNYALRKEIEDLQKQ-NH2 [Peptide 18] | 55.5 ± 1.7 °C

Molecular target: T1, cJun bZIP
Test: CD thermal denaturation, peptide 5 µM and c-Jun 5 µM
Conditions: not given

Molecule | Tm (° C.) of peptide-c-Jun heterodimer
B2 | 55.6 ° C.
B3 | 57.5 ° C.
B4 | 54.9 ° C.
B1 | 63.2 ° C.
B5 | 60.9 ° C.
B6 | 55.5 ° C.
B7 | 56.5 ° C.
B8 | 53.8 ° C.
B9 | 62.1 ° C.
B10 | 58.9 ° C.
Ac-EAEELVVEEDVLEEEIEQLEERNYALRKEIEDLQKQLEKL-NH2 (Synthetic, NΔ20 CΔ3) [HingeW variant peptide 4] | 64.1 ° C.
Ac-LVVEEDVLEEEIEQLEEKNKALKDEIEDLQKQLEKLY-NH2 (also: table prints a different, shorter sequence for 7/8, also called linear form of 7/8) [HingeW variant peptide 7] | 64.3 ° C.
B11 | 56.2 ° C.

Molecular target: T1, cJun bZIP
Test: cell-based or functional assay
Conditions: not given

Molecule | IC50 CD
Ac-EAEELVVEEDVLEEEIEQLEEKNKALKDEIEDLY-NH2 [HingeW variant peptide 26] | 1560 µM
B2 | 101 µM
B3 | 100 µM
B4 | 114 µM
B1 | 44.9 µM
B5 | 94.4 µM
B6 | 98.9 µM
B7 | 115 µM
B8 | 725 µM
B9 | 94.6 µM
B10 | 94.1 µM
Ac-EAEELVVEEDVLEEEIEQLEERNYALRKEIEDLQKQLEKL-NH2 (Synthetic, NΔ20 CΔ3) [HingeW variant peptide 4] | 45.4 µM
Ac-LVVEEDVLEEEIEQLEEKNKALKDEIEDLQKQLEKLY-NH2 (also: table prints a different, shorter sequence for 7/8, also called linear form of 7/8) [HingeW variant peptide 7] | 83.9 µM
B11 | 121 µM
